The source of these data is PMC8347636.

A short description of series [1]: immunofluorescence, nuclear localisation, all cell lines. The following applies: glycan lost; control: wild type ER-tag CD24.
A short description of series [2]: immunofluorescence, % cells with plasma membrane CD24, MCF-7. The following applies: glycan lost; control: wild type ER-tag CD24.
A short description of series [3]: immunofluorescence, % cells with plasma membrane CD24, Hs578T. The following applies: glycan lost; control: wild type ER-tag CD24.
Series [4] can be described thus: immunofluorescence, % cells with plasma membrane CD24, HEK293T. Conditions: glycan lost; control: wild type ER-tag CD24.
A short description of series [5]: immunofluorescence, % cells with plasma membrane CD24, MDA-MB-231. Conditions: glycan lost; control: wild type ER-tag CD24.
Series [6] can be described thus: confocal immunofluorescence, plasma membrane vs cytoplasm, MCF-7. Conditions: glycan changed form; control: untreated cells, same construct.
The nature of series [7]: confocal immunofluorescence, plasma membrane vs cytoplasm, HEK293T. Conditions: glycan changed form; control: untreated cells, same construct.
Series [8] can be described thus: confocal immunofluorescence, % cells with plasma membrane CD24, Hs578T. The following applies: glycan changed form; control: untreated cells, same construct.
The nature of series [9]: confocal immunofluorescence, % cells with plasma membrane CD24, MDA-MB-231. The following applies: glycan changed form; control: untreated cells, same construct.

B1: CD24: N36Q (protein)
parent chain: MGRAMVARLGLGLLLLALLLPTQIYSSETTTGTSSNSSQSTSNSGLAPNPTNATTKAAGGALQSTASLFVVSLSLLHLYS
On to B1, for which the localisation_or_trafficking result in series [1] is on record as “no change”; in series [2], “no change”; in [3], “decreases”; in series [4], “decreases”; in series [5] it was “no change”.

B2: CD24: N52Q (protein)
parent chain: MGRAMVARLGLGLLLLALLLPTQIYSSETTTGTSSNSSQSTSNSGLAPNPTNATTKAAGGALQSTASLFVVSLSLLHLYS
As for B2, the localisation_or_trafficking entry is listed as “no change” in [1]; “no change” in series [2]; “decreases” in [3]; “decreases” in series [4]; “decreases” in [5].

B3: CD24: N36,52Q (protein)
parent chain: MGRAMVARLGLGLLLLALLLPTQIYSSETTTGTSSNSSQSTSNSGLAPNPTNATTKAAGGALQSTASLFVVSLSLLHLYS
Take B3: the localisation_or_trafficking result in [1] was “no change”; in series [2] it was “no change”; in series [3] it was “decreases”; in [4], “decreases”; in series [5], “decreases”.

B4: CD24: kifunensine, wild type CD24 (protein)
parent chain: MGRAMVARLGLGLLLLALLLPTQIYSSETTTGTSSNSSQSTSNSGLAPNPTNATTKAAGGALQSTASLFVVSLSLLHLYS
B4: the localisation_or_trafficking result in [6] is “no change”; in [7] it was “decreases”. In addition, the “localisation_or_trafficking, other: % decrease in cells with membrane CD24” value in series [8] is on record as “decreases”.

B5: CD24: kifunensine, WT-CD24 (protein)
parent chain: MGRAMVARLGLGLLLLALLLPTQIYSSETTTGTSSNSSQSTSNSGLAPNPTNATTKAAGGALQSTASLFVVSLSLLHLYS
Regarding B5, the localisation_or_trafficking result in series [9] was “decreases”.
